Key:
[1] = molecular target: amyloid beta oligomers (Homo sapiens, UniProt P05067); test: saturation binding/Scatchard
[2] = molecular target: amyloid beta monomer (Homo sapiens, UniProt P05067); test: saturation binding/Scatchard
Sequence of amyloid beta monomer (P05067 672-713): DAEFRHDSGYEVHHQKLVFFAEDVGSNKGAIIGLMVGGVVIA

Sequence of amyloid beta oligomers (P05067 672-713): as above

Kd [1]: 0.012 µM
Kd [2]: 19 µM
B1: BP (VEGF-derived peptide) (protein)
chain: MTDRQTDTAPSPSYHLLPGRRRTVDAAASRGQGPEPAPGGGVEGVGARGVALKLFVQLLGCSRFGGAVVRAGEAEPSGAARSASSGREEPQPEEGEEEEEKEEERGPQWRLGARKPGSWTGEAAVCADSAPAARAPQALARASGRGGRVARRGAEESGPPHSPSRRGSASRAGPGRASETMNFLLSWVHWSLALLLYLHHAKWSQAAPMAEGGGQNHHEVVKFMDVYQRSYCHPIETLVDIFQEYPDEIEYIFKPSCVPLMRCGGCCNDEGLECVPTEESNITMQIMRIKPHQGQHIGEMSFLQHNKCECRPKKDRARQEKKSVRGKGKGQKRKRKKSRYKSWSVPCGPCSERRKHLFVQDPQTCKCSCKNTDSRCKARQLELNERTCRCDKPRR

From article PMC10497828 (2023)
